These sequences were tested on Escherichia coli TOP10 (assay: shrunken log2 fold change of peptide-encoding DNA abundance (4.5 h post-induction vs induction); higher = less antimicrobial activity (less host growth inhibition)). Details: time post-induction: 4.5 h; library: site-saturation at positions 5, 18, 19, 20.
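Also: peptides expressed intracellularly from a pBAD plasmid library in pooled LB shake-flask culture, induced with 0.3% L-arabinose, DNA abundance read by NGS, three biological replicates, DESeq2 with apeglm shrinkage.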

Point of comparison: RRIRNRPPRLPRPRPRPILWPRP, “shrunken log2 fold change” value 0.123. Against it:
- RRIRDRPPRLPRPRPRPHCVPRP — within 0.2 log units, 0.017
- RRIRYRPPRLPRPRPRPNCIPRP — lower, -0.197
- RRIRIRPPRLPRPRPRPITTPRP — lower, -0.338
- RRIRCRPPRLPRPRPRPRRVPRP — higher, 0.342
- RRIRSRPPRLPRPRPRPRKGPRP — within 0.2 log units, 0.208
- RRIRDRPPRLPRPRPRPHWQPRP — lower, -0.149
- RRIRERPPRLPRPRPRPSLFPRP — lower, -0.44
- RRIRIRPPRLPRPRPRPCMGPRP — lower, -1.07
- RRIRDRPPRLPRPRPRPIKFPRP — lower, -0.236
- RRIRERPPRLPRPRPRPITSPRP — within 0.2 log units, 0.0102
- RRIRTRPPRLPRPRPRPHAQPRP — within 0.2 log units, 0.211
- RRIRHRPPRLPRPRPRPIMHPRP — lower, -0.375
- RRIRGRPPRLPRPRPRPDFIPRP — within 0.2 log units, 0.157
- RRIRERPPRLPRPRPRPWPWPRP — lower, -0.233
- RRIRDRPPRLPRPRPRPKCLPRP — within 0.2 log units, 0.313
- RRIRYRPPRLPRPRPRPIVPPRP — within 0.2 log units, 0.0202
- RRIRSRPPRLPRPRPRPRHLPRP — lower, -0.319
- RRIRYRPPRLPRPRPRPSTYPRP — lower, -0.332
- RRIRRRPPRLPRPRPRPDLWPRP — higher, 0.676
- RRIRCRPPRLPRPRPRPKFHPRP — lower, -0.498
- RRIRFRPPRLPRPRPRPSEAPRP — lower, -0.0845
- RRIRARPPRLPRPRPRPPDEPRP — higher, 0.338
- RRIRWRPPRLPRPRPRPNSAPRP — within 0.2 log units, 0.104
- RRIRRRPPRLPRPRPRPGVHPRP — lower, -0.178
- RRIRRRPPRLPRPRPRPMPWPRP — within 0.2 log units, 0.119
- RRIRGRPPRLPRPRPRPFHGPRP — within 0.2 log units, 0.0325
- RRIRQRPPRLPRPRPRPDENPRP — within 0.2 log units, 0.106
- RRIRTRPPRLPRPRPRPRTRPRP — within 0.2 log units, 0.204
- RRIRYRPPRLPRPRPRPWVWPRP — lower, -0.111
- RRIRPRPPRLPRPRPRPVLEPRP — lower, -0.147
- RRIRYRPPRLPRPRPRPFMSPRP — lower, -0.348
- RRIRARPPRLPRPRPRPMICPRP — within 0.2 log units, 0.0985
- RRIRPRPPRLPRPRPRPVPLPRP — within 0.2 log units, 0.0768
- RRIRHRPPRLPRPRPRPIYIPRP — lower, -0.156
- RRIRCRPPRLPRPRPRPIDTPRP — lower, -0.385
- RRIRARPPRLPRPRPRPPWYPRP — within 0.2 log units, 0.139
- RRIRGRPPRLPRPRPRPESDPRP — higher, 2.08
- RRIRERPPRLPRPRPRPNFHPRP — lower, -0.382
- RRIRARPPRLPRPRPRPTNIPRP — lower, -0.354
- RRIRARPPRLPRPRPRPSREPRP — higher, 0.816
- RRIRKRPPRLPRPRPRPMKNPRP — within 0.2 log units, 0.212
- RRIRARPPRLPRPRPRPTICPRP — within 0.2 log units, 0.144
- RRIRRRPPRLPRPRPRPTSNPRP — the same, 0.123
- RRIRTRPPRLPRPRPRPNCNPRP — lower, -0.353
- RRIRPRPPRLPRPRPRPINTPRP — lower, -0.844
- RRIRTRPPRLPRPRPRPGYEPRP — within 0.2 log units, -0.0417
- RRIRRRPPRLPRPRPRPWMYPRP — lower, -0.305
- RRIRHRPPRLPRPRPRPERRPRP — within 0.2 log units, 0.0748
- RRIRHRPPRLPRPRPRPQLMPRP — lower, -0.351
- RRIRQRPPRLPRPRPRPCIGPRP — lower, -0.204
- RRIRTRPPRLPRPRPRPHVHPRP — lower, -0.511
- RRIRLRPPRLPRPRPRPTALPRP — lower, -0.134
- RRIRWRPPRLPRPRPRPERPPRP — within 0.2 log units, 0.292
- RRIRVRPPRLPRPRPRPPNLPRP — within 0.2 log units, 0.239
- RRIRKRPPRLPRPRPRPHIDPRP — within 0.2 log units, 0.0232
- RRIRWRPPRLPRPRPRPMTPPRP — higher, 0.764
- RRIRMRPPRLPRPRPRPRSYPRP — within 0.2 log units, 0.068
- RRIRIRPPRLPRPRPRPFSRPRP — within 0.2 log units, -0.0685
- RRIRSRPPRLPRPRPRPCRKPRP — within 0.2 log units, -0.012
- RRIRRRPPRLPRPRPRPEEGPRP — within 0.2 log units, 0.00715
- RRIRDRPPRLPRPRPRPTNVPRP — lower, -0.138
- RRIRVRPPRLPRPRPRPGQGPRP — within 0.2 log units, 0.065
- RRIRPRPPRLPRPRPRPNEKPRP — within 0.2 log units, 0.023
- RRIRYRPPRLPRPRPRPEGCPRP — within 0.2 log units, 0.204
- RRIRERPPRLPRPRPRPWRSPRP — within 0.2 log units, 0.196
- RRIRGRPPRLPRPRPRPYPYPRP — lower, -0.095
- RRIRIRPPRLPRPRPRPKNTPRP — lower, -0.695
- RRIRNRPPRLPRPRPRPSRRPRP — within 0.2 log units, 0.27
- RRIRERPPRLPRPRPRPAGFPRP — higher, 0.67
- RRIRARPPRLPRPRPRPDIQPRP — lower, -0.149
- RRIRCRPPRLPRPRPRPDWHPRP — lower, -0.358
- RRIRVRPPRLPRPRPRPADCPRP — within 0.2 log units, 0.0869
- RRIRMRPPRLPRPRPRPWPRPRP — higher, 1.25
- RRIRNRPPRLPRPRPRPEPLPRP — within 0.2 log units, 0.00741
- RRIRFRPPRLPRPRPRPFRNPRP — within 0.2 log units, 0.0579
- RRIRMRPPRLPRPRPRPHSIPRP — within 0.2 log units, 0.0955
- RRIRERPPRLPRPRPRPISWPRP — lower, -0.246
- RRIRKRPPRLPRPRPRPSFCPRP — within 0.2 log units, -0.0321
- RRIRKRPPRLPRPRPRPYVRPRP — within 0.2 log units, 0.00408
- RRIRARPPRLPRPRPRPAFKPRP — within 0.2 log units, 0.126
- RRIRPRPPRLPRPRPRPNSQPRP — lower, -0.314
- RRIRTRPPRLPRPRPRPCRTPRP — within 0.2 log units, -0.0391
- RRIRCRPPRLPRPRPRPHDLPRP — lower, -0.46
- RRIRDRPPRLPRPRPRPTGDPRP — within 0.2 log units, 0.209
- RRIRNRPPRLPRPRPRPMFVPRP — within 0.2 log units, 0.134
- RRIRTRPPRLPRPRPRPQWYPRP — lower, -0.524
- RRIRNRPPRLPRPRPRPYYFPRP — lower, -0.695
- RRIRHRPPRLPRPRPRPPWNPRP — within 0.2 log units, -0.0664
- RRIRRRPPRLPRPRPRPMHYPRP — within 0.2 log units, 0.117
- RRIRPRPPRLPRPRPRPKAIPRP — within 0.2 log units, 0.11
- RRIRWRPPRLPRPRPRPTEMPRP — within 0.2 log units, -0.00675
- RRIRCRPPRLPRPRPRPYWWPRP — lower, -0.441
- RRIRERPPRLPRPRPRPKIKPRP — lower, -0.6
- RRIRTRPPRLPRPRPRPSPTPRP — within 0.2 log units, 0.0477
- RRIRLRPPRLPRPRPRPISRPRP — within 0.2 log units, 0.0488
- RRIRLRPPRLPRPRPRPWRMPRP — within 0.2 log units, 0.0332
- RRIRLRPPRLPRPRPRPADEPRP — within 0.2 log units, 0.167
- RRIRWRPPRLPRPRPRPVGAPRP — higher, 1.73
- RRIRKRPPRLPRPRPRPFARPRP — within 0.2 log units, 0.187
- RRIRDRPPRLPRPRPRPDVVPRP — within 0.2 log units, -0.0108
- RRIRMRPPRLPRPRPRPICNPRP — within 0.2 log units, -0.0126
- RRIRPRPPRLPRPRPRPMQFPRP — within 0.2 log units, 0.231
- RRIRARPPRLPRPRPRPSMCPRP — lower, -0.081
- RRIRARPPRLPRPRPRPDVCPRP — within 0.2 log units, -0.0214
- RRIRERPPRLPRPRPRPGFQPRP — lower, -0.104
- RRIRTRPPRLPRPRPRPCHEPRP — within 0.2 log units, -0.0167
- RRIRKRPPRLPRPRPRPKPEPRP — higher, 0.781
- RRIRMRPPRLPRPRPRPDNNPRP — within 0.2 log units, 0.274
- RRIRTRPPRLPRPRPRPHNEPRP — lower, -0.581
- RRIRVRPPRLPRPRPRPKMGPRP — within 0.2 log units, 0.0797
- RRIRTRPPRLPRPRPRPCHRPRP — within 0.2 log units, -0.000687
- RRIRERPPRLPRPRPRPAWKPRP — within 0.2 log units, -0.0447
- RRIRFRPPRLPRPRPRPPQLPRP — within 0.2 log units, 0.274
- RRIRCRPPRLPRPRPRPLLGPRP — within 0.2 log units, 0.201
- RRIRFRPPRLPRPRPRPDVCPRP — lower, -0.1
- RRIRNRPPRLPRPRPRPITTPRP — lower, -0.225
- RRIRTRPPRLPRPRPRPCTNPRP — within 0.2 log units, -0.0102
- RRIRMRPPRLPRPRPRPVIRPRP — within 0.2 log units, 0.00204
- RRIRSRPPRLPRPRPRPLKEPRP — within 0.2 log units, 0.176
- RRIRKRPPRLPRPRPRPENWPRP — higher, 0.928
- RRIRSRPPRLPRPRPRPECNPRP — within 0.2 log units, 0.218
- RRIRDRPPRLPRPRPRPIGCPRP — within 0.2 log units, 0.242
- RRIRARPPRLPRPRPRPHDFPRP — within 0.2 log units, 0.0354
- RRIRLRPPRLPRPRPRPMDMPRP — lower, -0.384
- RRIRDRPPRLPRPRPRPDYCPRP — within 0.2 log units, -0.045
- RRIRGRPPRLPRPRPRPVNVPRP — within 0.2 log units, 0.0488
- RRIRQRPPRLPRPRPRPLVWPRP — within 0.2 log units, 0.152
- RRIRGRPPRLPRPRPRPVSQPRP — higher, 0.795
- RRIRYRPPRLPRPRPRPNSMPRP — lower, -1.77
- RRIRARPPRLPRPRPRPFSFPRP — lower, -0.235
- RRIRHRPPRLPRPRPRPGCEPRP — within 0.2 log units, 0.103
- RRIRWRPPRLPRPRPRPKQNPRP — within 0.2 log units, 0.3
- RRIRDRPPRLPRPRPRPQMQPRP — within 0.2 log units, 0.135
- RRIRNRPPRLPRPRPRPLCWPRP — lower, -0.198
- RRIRSRPPRLPRPRPRPASQPRP — within 0.2 log units, 0.0365
- RRIRNRPPRLPRPRPRPHTAPRP — lower, -0.158
- RRIRLRPPRLPRPRPRPPHGPRP — within 0.2 log units, 0.223
- RRIRGRPPRLPRPRPRPWNQPRP — lower, -0.139
- RRIRSRPPRLPRPRPRPIRVPRP — within 0.2 log units, 0.047
- RRIRPRPPRLPRPRPRPLKNPRP — within 0.2 log units, 0.186
- RRIRARPPRLPRPRPRPMWWPRP — within 0.2 log units, 0.166
- RRIRVRPPRLPRPRPRPRMMPRP — within 0.2 log units, 0.0121
- RRIRMRPPRLPRPRPRPLHRPRP — within 0.2 log units, 0.304
- RRIRRRPPRLPRPRPRPMQEPRP — lower, -0.206
- RRIRDRPPRLPRPRPRPVWFPRP — higher, 1.26
- RRIRTRPPRLPRPRPRPPEHPRP — within 0.2 log units, 0.0826
- RRIRARPPRLPRPRPRPFGVPRP — within 0.2 log units, 0.165
- RRIRGRPPRLPRPRPRPPQFPRP — higher, 0.676
- RRIRKRPPRLPRPRPRPFHYPRP — lower, -0.0954
